Assay results reported in patent US20220096594A1 (University of Texas, published 2022).
Bridge positions count the residues as written; N and C are the ends. Square brackets hold non-standard residues; d marks the D form. Primed or numbered codes have the meaning given here. Ends that are not written are not given here. * marks the point of attachment. DSG″ = disuccinimidyl glutarate, a bis-NHS cross-linker that leaves a glutaryl bridge between two amines; DSG(3) = disuccinimidyl glutarate, bis-NHS cross-linker leaving a glutaryl bridge between two amines; puromycin = COc1ccc(C[C@H](N*)C(=O)N[C@H]2[C@@H](O)[C@H](n3cnc4c(N(C)C)ncnc43)O[C@@H]2CO)cc1; DSG = disuccinimidyl glutarate; NMeA = CN[C@@H](C)C(=O)O; mRNA = not defined here

B1: SUPR 4B1W (peptide)
peptide: MWPHRVTA[NMeA]K
modifications: bridge N-10 via DSG
notes: Phenylalanine-to-tryptophan variant of SUPR 4B at position 2
B2: Clone 4B radiolabeled mRNA-peptide fusion (peptide)
peptide: MFPHRVTA[NMeA]K
modifications: bridge N-10; not fully specified (C-terminus, bridges); also: radiolabeled
notes: Tested as an individual in vitro translated peptide fusion from the SUPR mRNA display selection; also called Peptide 4B
B3: SUPR 4B (synthesized cyclic peptide) (peptide)
peptide: MFPHRVTA[NMeA]K
modifications: bridge N-10 via DSG″
notes: It is kept apart from the mRNA-peptide fusion m1; also called Clone 4B

Columns and labels:
[1] = biological target: LC3 (as used in surface plasmon resonance) (human, UniProt Q9H492 1-120); assay: surface plasmon resonance
[2] = biological target: T1, His6-LC3A, biotinylated and immobilized on streptavidin agarose (human, UniProt Q9H492 1-121, chemically biotinylated (sites not given)); assay: radiolabeled peptide fusion incubated with immobilized LC3A
T1 construct: the species is not restated for this construct; The tag is placed at the N-terminus only because of the name His6-LC3A; also called immobilized LC3A; immobilized LC3; not shown: His6 tag

Binder	Kd [1]	fold improvement of the apparent dissociation constant relative to SUPR4B [1]	% of radiolabeled peptide-fusions bound to immobilized LC3 [2]
B1	30 µM	~10 fold	
MLSDIPVNDK-{puromycin-mRNA} (bridge N-10 via DSG(3); reading uncertain; also: radiolabeled) [Clone 4E radiolabeled mRNA-peptide fusion]			7%
B2			86%
MFSHRVTL[NMeA]K (bridge N-10; not fully specified (C-terminus, bridges); also: radiolabeled) [Clone 25C radiolabeled mRNA-peptide fusion]			13%
MYARSLRD[NMeA]K (bridge N-10; not fully specified (C-terminus, bridges); also: radiolabeled) [Clone 25A radiolabeled mRNA-peptide fusion]			6%
MNARSLRD[NMeA]K (bridge N-10; not fully specified (C-terminus, bridges); also: radiolabeled) [Clone 25F radiolabeled mRNA-peptide fusion]			5%
B3	291 µM		
